In PMC3265570 (Nature structural & molecular biology, 2011):
No end group written: not given here.

Target: full-length Crk-II (SH2-nSH3-cSH3) (UniProt Q64010-1 1-304)
Assay: other fluorescence titration

full-length Crk-II (SH2-nSH3-cSH3), sequence (Q64010 whole entry): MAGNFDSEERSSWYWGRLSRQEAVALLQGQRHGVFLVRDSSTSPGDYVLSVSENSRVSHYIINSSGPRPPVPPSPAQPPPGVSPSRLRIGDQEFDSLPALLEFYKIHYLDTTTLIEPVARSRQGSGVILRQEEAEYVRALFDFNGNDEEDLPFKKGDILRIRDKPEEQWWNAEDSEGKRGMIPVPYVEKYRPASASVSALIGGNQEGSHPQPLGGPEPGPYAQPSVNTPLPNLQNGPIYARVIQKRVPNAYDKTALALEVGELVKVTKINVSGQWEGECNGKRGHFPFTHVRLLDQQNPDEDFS

Binder HPPPPLPPKRRK(fluorescein)G-NH2 [fluorescein-labeled C3G-derived ligand] has a Kd of 286 ± 19 nM.
